Measurements: US20140274782A1, “AFFINITY REAGENTS AND METHODS FOR DETECTION, PURIFICATION, AND PROTEOMIC ANALYSIS OF METHYLATED PROTEINS” (The Board of Trustees of the Leland Stanford Junior …, priority 2013, published 2014)

Legend:
G9a and GLP = target: T1, G9a and GLP (Homo sapiens, UniProt Q96KQ7+Q9H9B1); assay: Triple SILAC pull-down after UNC0638 treatment of 293T cells, DMSO/UNC0638 ratio of protein captured by 3×MBT; format: cell-based; settings: for Relative to UNC0638 UNC Heavy: UNC0638 in heavy SILAC media; for Relative to UNC0638 UNC Light: UNC0638 in light SILAC media; for Relative to UNC0638 Average: average of UNC Light and UNC Heavy experiments;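 for all read-outs here: mass spectrometry (Q-Exactive) SILAC quantitation, DMSO/UNC0638 ratio computed after subtracting 3×MBTD355N mutant pull-down background, only proteins with at least twofold 3×MBT over mutant signal considered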
T1 construct: endogenous in cells; host or cells: HEK 293T
T1 sequence (Q96KQ7 2-1210 limits assumed): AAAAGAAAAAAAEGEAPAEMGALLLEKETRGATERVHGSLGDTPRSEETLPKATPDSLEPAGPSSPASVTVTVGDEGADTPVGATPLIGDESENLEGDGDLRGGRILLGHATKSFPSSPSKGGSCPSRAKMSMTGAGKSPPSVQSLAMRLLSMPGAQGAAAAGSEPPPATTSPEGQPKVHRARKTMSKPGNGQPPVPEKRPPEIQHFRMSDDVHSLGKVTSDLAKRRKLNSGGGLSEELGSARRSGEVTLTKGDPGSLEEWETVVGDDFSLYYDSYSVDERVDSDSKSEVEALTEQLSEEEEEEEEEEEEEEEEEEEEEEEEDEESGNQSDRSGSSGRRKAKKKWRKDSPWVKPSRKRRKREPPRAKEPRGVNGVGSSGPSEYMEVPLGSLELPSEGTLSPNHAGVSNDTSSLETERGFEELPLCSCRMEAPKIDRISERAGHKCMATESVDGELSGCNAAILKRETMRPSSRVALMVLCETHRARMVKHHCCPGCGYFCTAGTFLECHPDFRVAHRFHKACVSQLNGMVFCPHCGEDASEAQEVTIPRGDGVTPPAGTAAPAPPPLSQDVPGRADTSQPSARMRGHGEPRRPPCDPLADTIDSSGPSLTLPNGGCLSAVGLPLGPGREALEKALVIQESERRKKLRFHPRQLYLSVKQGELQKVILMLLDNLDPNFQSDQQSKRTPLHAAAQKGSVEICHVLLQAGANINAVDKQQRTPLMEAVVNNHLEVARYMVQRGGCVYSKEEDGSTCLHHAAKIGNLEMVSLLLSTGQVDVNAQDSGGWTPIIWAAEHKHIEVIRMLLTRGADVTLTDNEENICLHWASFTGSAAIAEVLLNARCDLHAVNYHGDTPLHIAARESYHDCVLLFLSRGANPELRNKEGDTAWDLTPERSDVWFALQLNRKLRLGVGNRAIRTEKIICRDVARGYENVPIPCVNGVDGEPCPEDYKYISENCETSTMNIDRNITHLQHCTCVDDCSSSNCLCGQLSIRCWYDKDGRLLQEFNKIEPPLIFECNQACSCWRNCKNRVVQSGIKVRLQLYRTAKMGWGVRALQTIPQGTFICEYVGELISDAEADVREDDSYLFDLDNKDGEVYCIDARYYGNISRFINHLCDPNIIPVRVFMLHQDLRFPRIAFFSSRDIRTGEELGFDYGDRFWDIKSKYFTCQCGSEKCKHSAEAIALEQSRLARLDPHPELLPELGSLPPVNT
T1 sequence (Q9H9B1 2-1298 limits assumed): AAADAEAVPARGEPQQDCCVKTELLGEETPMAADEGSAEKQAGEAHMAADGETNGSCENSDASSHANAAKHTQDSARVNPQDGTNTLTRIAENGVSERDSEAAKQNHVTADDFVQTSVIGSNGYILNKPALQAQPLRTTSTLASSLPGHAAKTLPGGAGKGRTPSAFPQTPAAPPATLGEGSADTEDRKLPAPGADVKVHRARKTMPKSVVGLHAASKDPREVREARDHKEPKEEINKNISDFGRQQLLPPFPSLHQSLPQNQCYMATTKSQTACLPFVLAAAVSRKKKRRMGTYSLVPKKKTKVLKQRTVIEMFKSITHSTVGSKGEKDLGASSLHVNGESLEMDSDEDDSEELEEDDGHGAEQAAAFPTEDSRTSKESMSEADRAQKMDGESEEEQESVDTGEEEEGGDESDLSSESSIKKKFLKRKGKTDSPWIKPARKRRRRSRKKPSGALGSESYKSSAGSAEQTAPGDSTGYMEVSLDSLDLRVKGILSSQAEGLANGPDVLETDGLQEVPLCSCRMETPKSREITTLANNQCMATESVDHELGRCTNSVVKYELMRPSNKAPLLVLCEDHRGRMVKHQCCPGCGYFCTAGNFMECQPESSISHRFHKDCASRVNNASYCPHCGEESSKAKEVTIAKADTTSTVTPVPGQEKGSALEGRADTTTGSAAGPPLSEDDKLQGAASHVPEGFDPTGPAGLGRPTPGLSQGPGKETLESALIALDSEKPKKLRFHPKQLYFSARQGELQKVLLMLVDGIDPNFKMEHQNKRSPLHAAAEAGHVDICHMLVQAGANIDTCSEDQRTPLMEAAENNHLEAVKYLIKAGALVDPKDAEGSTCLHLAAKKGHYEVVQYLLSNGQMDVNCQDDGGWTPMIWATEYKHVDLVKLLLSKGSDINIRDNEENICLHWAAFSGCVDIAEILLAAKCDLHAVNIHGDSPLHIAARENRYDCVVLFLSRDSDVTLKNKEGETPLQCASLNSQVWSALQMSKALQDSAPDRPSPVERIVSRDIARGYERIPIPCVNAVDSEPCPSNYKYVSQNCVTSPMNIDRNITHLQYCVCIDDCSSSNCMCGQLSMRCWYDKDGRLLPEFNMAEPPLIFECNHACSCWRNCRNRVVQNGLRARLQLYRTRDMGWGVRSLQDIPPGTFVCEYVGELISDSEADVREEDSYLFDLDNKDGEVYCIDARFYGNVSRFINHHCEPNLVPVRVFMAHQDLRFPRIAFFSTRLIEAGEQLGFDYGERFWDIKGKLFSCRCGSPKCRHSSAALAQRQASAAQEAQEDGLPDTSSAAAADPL

3×MBT domain of L3MBTL1 = assay: Triple SILAC pull-down, 3xMBT/3xMBTD355N ratio (cytoplasmic, nuclear and chromatin fractions of 293T cells); format: binding, human; settings: for 3xMBT/D355N UNC Heavy: experiment with UNC0638 in heavy SILAC media; for 3xMBT/D355N UNC Light: experiment with UNC0638 in light SILAC media;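 for all read-outs here: proteins quantified with MaxQuant, requiring at least two unique peptides and quantification in both label directions, normalized to the mean of proteins from a digested loading control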
[1] = SILAC ratio DMSO relative to UNC0638, pull-down with 3xMBT, all values in log base 2
[2] = SILAC ratio 3xMBT vs 3xMBTD355N pull-down, 293T cells, all values in log base 2
[3] = SILAC ratio DMSO/UNC0638 of protein pulled down with 3xMBT
[4] = SILAC ratio, pull-down 3xMBT vs 3xMBTD355N

| Substance | Relative to UNC0638 UNC Heavy (G9a and GLP; [1]) | Relative to UNC0638 UNC Light (G9a and GLP; [1]) | Relative to UNC0638 Average (G9a and GLP; all values in log base 2) | 3xMBT/D355N UNC Heavy (3×MBT domain of L3MBTL1; [2]) | 3xMBT/D355N UNC Light (3×MBT domain of L3MBTL1; [2]) | Relative to UNC0638 UNC Heavy (G9a and GLP; [3]) | Relative to UNC0638 UNC Light (G9a and GLP; [3]) | Relative to UNC0638 Average (G9a and GLP) | 3xMBT/D355N UNC Heavy (3×MBT domain of L3MBTL1; [4]) | 3xMBT/D355N UNC Light (3×MBT domain of L3MBTL1; [4]) | Candidate G9a/GLP target (G9a and GLP; reduced association with 3xMBT after UNC0638 treatment) | Protein Ratios DMSO/UNC0638 (G9a and GLP; SILAC ratio of protein captured by 3xMBT, 293T cells treated 24 hours with UNC0638 at 2.5 μM or DMSO) | Protein Ratios 3xMBT/D355N (3×MBT domain of L3MBTL1; SILAC ratio, pull-down by 3xMBT vs 3xMBTD355N, 293T cells) |
| --- | --- | --- | --- | --- | --- | --- | --- | --- | --- | --- | --- | --- | --- |
| RPTOR | 0.54 log base 2 | −0.81 log base 2 | −0.14 log base 2 | 1.86 log base 2 | 1.58 log base 2 |  |  |  |  |  |  |  |  |
| SEC24C | 0.21 log base 2 | −0.05 log base 2 | 0.08 log base 2 | 2.58 log base 2 | 2.17 log base 2 |  |  |  |  |  |  |  |  |
| SH3GL1 |  |  |  |  |  | 0.60 log base 2 | −0.23 log base 2 | 0.19 log base 2 | 1.99 log base 2 | 2.38 log base 2 |  |  |  |
| SMARCA5 |  |  |  |  |  | 0.47 log base 2 | 0.32 log base 2 | 0.39 log base 2 | 2.49 log base 2 | 2.61 log base 2 | ✓ |  |  |
| SNRNP70 | 0.22 log base 2 | −0.01 log base 2 | 0.11 log base 2 | 3.26 log base 2 | 3.57 log base 2 |  |  |  |  |  |  |  |  |
| SNRNP200 |  |  |  |  |  | 0.19 log base 2 | 0.26 log base 2 | 0.22 log base 2 | 2.08 log base 2 | 3.14 log base 2 |  |  |  |
| SNRPA |  |  |  |  |  | 0.16 log base 2 | 0.11 log base 2 | 0.14 log base 2 | 4.73 log base 2 | 5.10 log base 2 |  |  |  |
| SRSF3 |  |  |  |  |  | 0.25 log base 2 | 0.23 log base 2 | 0.24 log base 2 | 2.63 log base 2 | 2.55 log base 2 |  |  |  |
| STRAP | 0.24 log base 2 | −0.15 log base 2 | 0.05 log base 2 | 1.61 log base 2 | 1.80 log base 2 |  |  |  |  |  |  |  |  |
| SUPT16H |  |  |  |  |  | 0.04 log base 2 | 0.23 log base 2 | 0.13 log base 2 | 3.66 log base 2 | 4.01 log base 2 |  |  |  |
| SWI/SNF-related matrix-associated actin-dependent regulator of chromatin subfamily A member 5 |  |  |  |  |  |  |  |  |  |  |  | 1.3 | 5.8 |
